Experimental data reported in PMC8911475, “Insight into the Phylogeny and Binding Ability of WRKY Transcription Factors”.

T1: WRKY54 DBD (Arabidopsis thaliana, UniProt Q93WU8 133-224)
T1 sequence: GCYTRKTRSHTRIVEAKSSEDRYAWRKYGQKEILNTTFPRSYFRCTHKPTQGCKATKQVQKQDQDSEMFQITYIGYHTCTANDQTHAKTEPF


Legend:
WRKY54 DBD [1] = biological target: T1, WRKY54 DBD; assay: EMSA; QCM: 30 mM HEPES pH 7.5, 0.5 M NaCl, 2 mM TCEP, 25 °C, biotin-dsDNA on avidin; fEMSA: 30 min incubation in the dark, native PAGE 4 °C 120 V 90 min, buffer not stated; details: protein: recombinant, tags: N-term MBP + thrombin site, C-term 12xHis
WRKY54 DBD [2] = biological target: T1, WRKY54 DBD; assay: QCM; QCM: 30 mM HEPES pH 7.5, 0.5 M NaCl, 2 mM TCEP, 25 °C, biotin-dsDNA on avidin; fEMSA: 30 min incubation in the dark, native PAGE 4 °C 120 V 90 min, buffer not stated; details: protein: recombinant; tags: N-term MBP + thrombin site; C-term 12xHis; label: 5' fluorescein (fEMSA); 5' biotin (QCM)
WRKY54 DBD [3] = biological target: T1, WRKY54 DBD; assay: QCM; text also gives 68 ± 11.73 pM for T13 (inconsistent); QCM: 30 mM HEPES pH 7.5, 0.5 M NaCl, 2 mM TCEP, 25 °C, biotin-dsDNA on avidin; fEMSA: 30 min incubation in the dark, native PAGE 4 °C 120 V 90 min, buffer not stated; details: protein: recombinant; tags: N-term MBP + thrombin site; C-term 12xHis; label: 5' fluorescein (fEMSA); 5' biotin (QCM)
[4] = label: 5' fluorescein (fEMSA), 5' biotin (QCM)

Binder | binding result (WRKY54 DBD [1]; label: 5' fluorescein) | binding result (WRKY54 DBD [1]; [4]) | Kd (WRKY54 DBD [2]) [nM] | also measured
W3 (dsDNA) DNA 1: TTAACTTGACCCAA DNA 2: TTGGGTCAAGTTAA | no binding | – | – | –
T8 (dsDNA) DNA 1: GTTGACTA DNA 2: TAGTCAAC | – | no binding | – | –
W2 (dsDNA) DNA 1: GTTATTTGACCACC DNA 2: GGTGGTCAAATAAC | no binding | – | – | –
T12a (dsDNA) DNA 1: TTGTTGACTAGG DNA 2: CCTAGTCAACAA | – | – | 0.047 ± 0.0062 | –
T10 (dsDNA) DNA 1: GTTGACTAGG DNA 2: CCTAGTCAAC | – | no binding | – | –
W4 (dsDNA) DNA 1: ATTTGTTGACTAGG DNA 2: CCTAGTCAACAAAT | – | – | 0.163 ± 0.0101 | –
T12 (dsDNA) DNA 1: ATTTGTTGACTA DNA 2: TAGTCAACAAAT | – | – | 2.19 ± 0.442 | –
T6 (dsDNA) DNA 1: TTGACT DNA 2: AGTCAA | – | no binding | – | –
W1 (dsDNA) DNA 1: TGTCCTTGACTACA DNA 2: TGTAGTCAAGGACA | no binding | – | – | –
T13 (dsDNA) DNA 1: ATTTGTTGACTAG DNA 2: CTAGTCAACAAAT | – | – | – | Kd (WRKY54 DBD [3]): 0.192 ± 0.0225 nM
